Reference: US20230049529A1 (ALNYLAM PHARMACEUTICALS, published 2023)

Tests used:
human SLAMF7 [1] = target: T1, human SLAMF7 (human, UniProt Q9NQ25 23-335); test: flow cytometry on MM cell lines U-266, NCI-H929, RPMI-8226; DVD-IgG1 at 20 nM, Alexa Fluor 647 anti-human Fc; curve assigned by grey tone only
T1 construct: whole, on cells; Cell surface antigen targeted on human MM cell lines in flow cytometry; also called CS-1
Protocol: (§1) Flow cytometry: In a V-bottom 96-well plate (Corning), 100,000 cells per well were dispensed. The cells were washed with 200 μL flow cytometry buffer (PBS, 2% (v/v) FBS, 0.01% (w/v) NaN₃, pH 7.4), incubated with DVD-IgG1 or IgG1 (50 μL of a 20 nM solution in PBS) for 30 min on ice, washed with 200 μL ice-cold flow cytometry buffer, and stained with Alexa Fluor 647 conjugated polyclonal (Fab′)₂ donkey anti-human Fc (Jackson ImmunoResearch Laboratories) for 20 min on ice. After washing twice with 200 μL ice-cold flow cytometry buffer, the cells were analyzed using a Canto II Flow Cytometer (Becton-Dickinson). Data were analyzed using FlowJo software (Tree Star).

human CD138 [2] = target: T2, human CD138 (human, UniProt P18827 23-310); test: flow cytometry on MM cell lines U-266, NCI-H929, RPMI-8226; DVD-IgG1 at 20 nM, Alexa Fluor 647 anti-human Fc
T2 construct: whole, on cells; Cell surface antigen targeted on human MM cell lines in flow cytometry
T2 sequence (looked up): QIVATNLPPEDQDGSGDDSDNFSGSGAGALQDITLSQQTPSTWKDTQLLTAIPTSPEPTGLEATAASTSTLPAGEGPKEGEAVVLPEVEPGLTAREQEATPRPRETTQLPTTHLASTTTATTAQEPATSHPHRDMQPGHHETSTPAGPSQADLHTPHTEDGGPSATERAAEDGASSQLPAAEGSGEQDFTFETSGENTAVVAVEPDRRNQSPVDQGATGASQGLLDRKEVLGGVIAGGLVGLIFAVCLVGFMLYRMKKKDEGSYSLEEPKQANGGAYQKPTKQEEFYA
Protocol: as §1

human SLAMF7 [3] = target: T1, human SLAMF7; test: flow cytometry on MM cell lines U-266, NCI-H929, RPMI-8226; negative control
Protocol: as §1

human CD138 [4] = target: T2, human CD138; test: as above
Protocol: as §1

[5] = target: T3, human B-cell maturation antigen (BCMA) (human, UniProt Q02223 1-184); test: flow cytometry on cells; cell line and concentration not printed on the sheet (methods paragraph 609)
T3 construct: whole, on cells; Cell surface antigen targeted on human MM cell lines in flow cytometry
T3 sequence (looked up): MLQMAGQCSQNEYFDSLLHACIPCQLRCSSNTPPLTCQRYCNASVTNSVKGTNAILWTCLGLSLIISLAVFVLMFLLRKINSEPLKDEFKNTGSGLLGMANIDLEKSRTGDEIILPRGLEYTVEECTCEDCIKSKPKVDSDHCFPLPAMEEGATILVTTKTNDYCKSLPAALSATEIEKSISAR
Protocol: Flow cytometry: During the process of flow cytometry, 100,000 cells were dispensed in each well of a V-bottom 96-well plate (Corning) and washed with 150 μL of flow cytometry buffer (PBS, 2% (v/v) FBS, 0.01% (w/v) NaN₃, pH 7.4). Subsequently, the cells were incubated with the antibodies (200 nM in 50 μL PBS) for 1 h on ice, followed by 3 rounds of washing (200 μL flow buffer). Finally, the cells were stained with R-Phycoerythrin AffiniPure F(ab′)₂ Fragment Goat Anti-Human IgG, F(ab′)₂ fragment specific (for Fabs and IgG1 or IgG1 ARCs), or R-Phycoerythrin AffiniPure F(ab′)₂ Fragment Donkey Anti-Human IgM, Fc5μ fragment specific (IgM or IgM ARCs) purchased from Jackson ImmunoResearch Laboratories for 30 min on ice. After 3 rounds of washing, the cells were passed through a BD FACSCanto™ II and the data were extracted and analyzed via FlowJo software.

B1: Anti-SLAMF7 DVD-IgG1 (1) (antibody)
light: DIQMTQSPSSLSASVGDRVTITCKASQDVGIAVAWYQQKPGKVPKLLIYWASTRHTGVPDRFSGSGSGTDFTLTISSLQPEDVATYYCQQYSSYPYTFGQGTKVEIKASTKGPELQMTQSPSSLSASVGDRVTITCRSSQSLLHTYGSPYLNWYLQKPGQSPKLLIYKVSNRFSGVPSRFSGSGSGTDFTLTISSLQPEDFAVYFCSQGTHLPYTFGGGTKVEIKRTVAAPSVFIFPPSDEQLKSGTASVVCLLNNFYPREAKVQWKVDNALQSGNSQESVTEQDSKDSTYSLSSTLTLSKADYEKHKVYACEVTHQGLSSPVTKSFNRGEC
heavy: not shown
notes: Dual variable domain IgG1: outer anti-SLAMF7 Fv, ASTKGP spacer, inner h38C2 Fv, human IgG1 and kappa constant domains
binding result (human SLAMF7 [1]): binds

B2: Anti-CD138 DVD-IgG1 (3) (antibody)
light: DIQMTQSTSSLSASLGDRVTISCSASQGINNYLNWYQQKPDGTVELLIYYTSTLQSGVPSRFSGSGSGTDYSLTISNLEPEDIGTYYCQQYSKLPRTFGGGTKLEIKASTKGPELQMTQSPSSLSASVGDRVTITCRSSQSLLHTYGSPYLNWYLQKPGQSPKLLIYKVSNRFSGVPSRFSGSGSGTDFTLTISSLQPEDFAVYFCSQGTHLPYTFGGGTKVEIKRTVAAPSVFIFPPSDEQLKSGTASVVCLLNNFYPREAKVQWKVDNALQSGNSQESVTEQDSKDSTYSLSSTLTLSKADYEKHKVYACEVTHQGLSSPVTKSFNRGEC
heavy: not shown
notes: Dual variable domain IgG1: outer anti-CD138 Fv, ASTKGP spacer, inner h38C2 Fv, human IgG1 and kappa constant domains
binding result (human CD138 [2]): binds

B3: h38C2 IgG1 (antibody, V domains shown)
VH: EVQLVESGGGLVQPGGSLRLSCAASGFTFSNYWMSWVRQSPEKGLEWVSEIRLRSDNYATHYAESVKGRFTISRDNSKNTLYLQMNSLRAEDTGIYYCKTYFYSFSYWGQGTLVTVSS
VL: ELQMTQSPSSLSASVGDRVTITCRSSQSLLHTYGSPYLNWYLQKPGQSPKLLIYKVSNRFSGVPSRFSGSGSGTDFTLTISSLQPEDFAVYFCSQGTHLPYTFGGGTKVEIKR
notes: also called humanized 38C2 IgG1
binding result (human SLAMF7 [3]): no binding (tested: 20 nM (single concentration)) | binding result (human CD138 [4]): no binding (tested: 20 nM (single concentration))

B4: Anti-BCMA DVD-IgG1 (2) (antibody)
light: DIQMTQSPSSLSASVGDRVTITCSASQDISNYLNWYQQKPGKAPKLLIYYTSNLHSGVPSRFSGSGSGTDFTLTISSLQPEDFATYYCQQYRKLPWTFGQGTKLEIKASTKGPELQMTQSPSSLSASVGDRVTITCRSSQSLLHTYGSPYLNWYLQKPGQSPKLLIYKVSNRFSGVPSRFSGSGSGTDFTLTISSLQPEDFAVYFCSQGTHLPYTFGGGTKVEIKRTVAAPSVFIFPPSDEQLKSGTASVVCLLNNFYPREAKVQWKVDNALQSGNSQESVTEQDSKDSTYSLSSTLTLSKADYEKHKVYACEVTHQGLSSPVTKSFNRGEC
heavy: not shown
notes: Dual variable domain IgG1: outer anti-BCMA Fv, ASTKGP spacer, inner h38C2 Fv, human IgG1 and kappa constant domains
binding result [5]: binds
